How the values were obtained:
Experiment in all cases: holdup assay
Set-up in all cases: key: below the threshold = too weak to quantify, mostly under pKd 3.1 to 4
[1] = target: GRID2IP_1, A4D2P6
[2] = target: SCRIB_1, Q14160
[3] = target: SNX27, Q96L92
[4] = target: NHERF4_4, Q86UT5
[5] = target: NHERF4_2, Q86UT5
[6] = target: T1, DFNB31_1, Q9P202
T1 sequence (Q9P202 135-233, limits assumed, looked up): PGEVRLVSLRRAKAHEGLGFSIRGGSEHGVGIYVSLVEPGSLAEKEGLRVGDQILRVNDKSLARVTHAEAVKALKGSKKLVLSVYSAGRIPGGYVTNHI

[7] = target: T2, LIN7B, Q9HAP6
T2 sequence (Q9HAP6 88-185, limits assumed, looked up): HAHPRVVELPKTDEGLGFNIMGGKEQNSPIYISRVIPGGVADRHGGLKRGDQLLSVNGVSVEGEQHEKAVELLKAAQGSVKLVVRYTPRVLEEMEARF

[8] = target: T3, RAPGEF6, Q8TEU7
T3 sequence (Q8TEU7 525-625, limits assumed, looked up): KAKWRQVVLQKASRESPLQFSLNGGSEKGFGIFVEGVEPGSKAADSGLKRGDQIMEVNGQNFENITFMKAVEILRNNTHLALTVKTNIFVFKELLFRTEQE

[9] = target: T4, MPDZ_5, O75970
T4 sequence (O75970 695-796, limits assumed, looked up): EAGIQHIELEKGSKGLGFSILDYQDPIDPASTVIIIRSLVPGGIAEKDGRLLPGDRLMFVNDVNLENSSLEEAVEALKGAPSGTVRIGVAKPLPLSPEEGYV

[10] = target: DLG1_3, Q12959
Chain of DLG1_3, Q12959 (Q12959 457-571): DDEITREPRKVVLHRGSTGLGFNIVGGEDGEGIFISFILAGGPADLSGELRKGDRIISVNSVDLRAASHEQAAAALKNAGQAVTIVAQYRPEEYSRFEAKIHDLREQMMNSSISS

[11] = target: FRMPD2_3, Q68DX3
Chain of FRMPD2_3, Q68DX3 (Q68DX3 1073-1166): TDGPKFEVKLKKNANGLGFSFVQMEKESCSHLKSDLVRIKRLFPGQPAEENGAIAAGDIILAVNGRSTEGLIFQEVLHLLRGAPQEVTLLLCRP

[12] = target: T5, MPDZ_10, O75970
T5 sequence (O75970 1624-1722, limits assumed, looked up): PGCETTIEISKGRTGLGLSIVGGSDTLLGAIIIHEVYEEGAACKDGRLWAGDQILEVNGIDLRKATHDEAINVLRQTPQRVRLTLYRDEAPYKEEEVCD

[13] = target: Inadl_5, Q8NI35
Chain of Inadl_5, Q8NI35 (Q8NI35 673-780): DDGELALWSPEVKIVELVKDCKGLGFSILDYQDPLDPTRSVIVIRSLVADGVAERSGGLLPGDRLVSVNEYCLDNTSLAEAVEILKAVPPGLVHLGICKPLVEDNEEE

[14] = target: AHNAK1, Q09666
Chain of AHNAK1, Q09666 (Q09666 4-100): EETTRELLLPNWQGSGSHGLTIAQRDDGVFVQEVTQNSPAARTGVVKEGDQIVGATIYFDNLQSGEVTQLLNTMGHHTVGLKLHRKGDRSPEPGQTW

[15] = target: T6, SIPA1L2, Q9P2F8
T6 sequence (Q9P2F8 945-1036, limits assumed, looked up): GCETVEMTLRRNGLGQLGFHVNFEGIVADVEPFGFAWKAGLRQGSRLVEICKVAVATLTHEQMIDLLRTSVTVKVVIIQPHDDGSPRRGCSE

[16] = target: T7, NHERF3_3, Q5T2W1
T7 sequence (Q5T2W1 238-333, limits assumed, looked up): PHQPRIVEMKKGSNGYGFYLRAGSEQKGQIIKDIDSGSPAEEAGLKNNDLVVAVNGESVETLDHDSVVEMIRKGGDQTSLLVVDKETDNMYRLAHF

[17] = target: TJP1_3, Q07157
Chain of TJP1_3, Q07157 (Q07157 416-512): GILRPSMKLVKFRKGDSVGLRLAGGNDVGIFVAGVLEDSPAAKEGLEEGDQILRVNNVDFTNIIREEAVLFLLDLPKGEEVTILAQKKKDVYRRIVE

[18] = target: T8, SNTG2, Q9NY99
T8 sequence (Q9NY99 68-166, limits assumed, looked up): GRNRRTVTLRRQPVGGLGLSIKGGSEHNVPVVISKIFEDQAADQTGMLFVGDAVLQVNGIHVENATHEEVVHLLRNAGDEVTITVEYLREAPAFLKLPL

[19] = target: T9, MPDZ_12, O75970
T9 sequence (O75970 1857-1958, limits assumed, looked up): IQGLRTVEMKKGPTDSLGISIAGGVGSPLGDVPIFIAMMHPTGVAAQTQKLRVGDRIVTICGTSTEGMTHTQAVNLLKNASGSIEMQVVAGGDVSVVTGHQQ

[20] = target: T10, DLG3_1, Q92796
T10 sequence (Q92796 125-227, limits assumed, looked up): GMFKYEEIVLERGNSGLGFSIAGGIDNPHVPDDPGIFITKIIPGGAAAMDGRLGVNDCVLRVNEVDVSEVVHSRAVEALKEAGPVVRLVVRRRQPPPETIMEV

[21] = target: Inadl_3, Q8NI35
Chain of Inadl_3, Q8NI35 (Q8NI35 359-469): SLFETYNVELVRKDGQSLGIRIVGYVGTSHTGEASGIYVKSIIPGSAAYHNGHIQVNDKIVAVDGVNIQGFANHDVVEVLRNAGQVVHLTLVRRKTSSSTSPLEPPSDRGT

[22] = target: LDB3, O75112
Chain of LDB3, O75112 (O75112 1-94): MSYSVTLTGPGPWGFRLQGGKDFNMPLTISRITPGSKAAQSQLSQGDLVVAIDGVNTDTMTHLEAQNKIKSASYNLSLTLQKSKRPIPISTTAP

[23] = target: T11, PDZRN3_1, Q9UPQ7
T11 sequence (Q9UPQ7 244-349, limits assumed, looked up): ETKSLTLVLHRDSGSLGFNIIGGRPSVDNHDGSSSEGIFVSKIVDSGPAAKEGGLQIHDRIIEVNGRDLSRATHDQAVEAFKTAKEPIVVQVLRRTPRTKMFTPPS

[24] = target: T12, DLG3_2, Q92796
T12 sequence (Q92796 221-321, limits assumed, looked up): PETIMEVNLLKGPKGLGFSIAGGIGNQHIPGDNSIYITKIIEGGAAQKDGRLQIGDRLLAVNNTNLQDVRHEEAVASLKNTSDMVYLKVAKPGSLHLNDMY

[25] = plain residues with an end cap or a label only (N-terminal biotin on a linker: ahx)
[26] = plain residues with an end cap or a label only (N-terminal biotin on a linker: ado-ado)

Measured: pKd

Chain of NHERF4_4, Q86UT5 (Q86UT5 464-550): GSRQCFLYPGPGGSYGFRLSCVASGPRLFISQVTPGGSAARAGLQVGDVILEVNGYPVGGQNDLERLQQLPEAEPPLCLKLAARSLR
Chain of SCRIB_1, Q14160 (Q14160 718-814): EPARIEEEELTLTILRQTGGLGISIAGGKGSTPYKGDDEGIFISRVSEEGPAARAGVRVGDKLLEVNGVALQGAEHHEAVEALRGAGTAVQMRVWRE
Chain of GRID2IP_1, A4D2P6 (A4D2P6 1-87): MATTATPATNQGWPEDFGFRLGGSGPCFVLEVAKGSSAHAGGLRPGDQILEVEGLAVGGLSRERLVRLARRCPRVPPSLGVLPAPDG
Chain of NHERF4_2, Q86UT5 (Q86UT5 220-308): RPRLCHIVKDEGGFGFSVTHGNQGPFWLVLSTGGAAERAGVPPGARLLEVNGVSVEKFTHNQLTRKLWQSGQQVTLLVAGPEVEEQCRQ

EKQAKGDTEF [CACYBP, Q9HB71]
below the threshold: [1]; [25] | [2]; [25] | [4]; [25] | [5]; [25] | [6]; [25] | [7]; [25] | [8]; [25] | [9]; [25] | [10]; [25] | [11]; [25] | [12]; [25] | [13]; [25] | [14]; [25] | [15]; [25] | [16]; [25] | [17]; [25] | [18]; [25] | [19]; [25] | [20]; [25] | [21]; [25] | [22]; [25] | [23]; [25] | [24]; [25]
3.68: [3]; [25]

SLNANEVEWF [RNF130, Q86XS8]
3.54: [15]; [26]
3.89: [7]; [26]
3.94: [3]; [26]
3.61: [8]; [26]
3.51: [13]; [26]
below the threshold: [1]; [26] | [5]; [26] | [6]; [26] | [9]; [26] | [12]; [26] | [14]; [26] | [16]; [26] | [17]; [26] | [18]; [26] | [19]; [26] | [20]; [26] | [21]; [26] | [22]; [26] | [23]; [26]
3.64: [10]; [26]
3.49: [11]; [26]
4.22: [24]; [26]
3.77: [2]; [26]
4.1: [4]; [26]

TRKRSGEAAV [PFKM, P08237]
below the threshold: [1]; [26] | [2]; [26] | [4]; [26] | [5]; [26] | [6]; [26] | [7]; [26] | [8]; [26] | [9]; [26] | [10]; [26] | [12]; [26] | [13]; [26] | [14]; [26] | [15]; [26] | [16]; [26] | [17]; [26] | [18]; [26] | [19]; [26] | [20]; [26] | [21]; [26] | [22]; [26] | [23]; [26] | [24]; [26]
3.97: [11]; [26]
3.83: [3]; [26]
